The source of these data is patent US20250076311A1 (Chugai, published 2025).

Experiment [1] deals with T1, cynomolgus monkey FcγRIIa1 extracellular domain, His-tagged (cynomolgus monkey).
T1 construct: also called cyno FcgRIIa1
T1 chain: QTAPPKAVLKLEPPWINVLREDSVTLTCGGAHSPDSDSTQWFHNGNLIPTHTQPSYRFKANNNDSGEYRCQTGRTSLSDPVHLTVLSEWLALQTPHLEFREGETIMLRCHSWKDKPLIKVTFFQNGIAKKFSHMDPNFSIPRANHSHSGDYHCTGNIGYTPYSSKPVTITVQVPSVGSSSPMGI
The experiment can be described thus: SPR (Biacore), 25C, KD of SG1 / KD of variant. On the technique in general: Surface plasmon resonance follows binding to a sensor surface in real time, without labels.

In experiment [2] the target is T2, cynomolgus monkey FcγRIIa2 extracellular domain, His-tagged (cynomolgus monkey).
T2 construct: also called cyno FcgRIIa2
T2 chain: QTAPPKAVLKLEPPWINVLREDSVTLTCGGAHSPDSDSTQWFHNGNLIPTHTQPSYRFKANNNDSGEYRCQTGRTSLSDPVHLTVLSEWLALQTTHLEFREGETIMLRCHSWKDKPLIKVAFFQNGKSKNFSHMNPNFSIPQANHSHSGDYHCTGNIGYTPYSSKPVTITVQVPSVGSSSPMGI
The experiment can be described thus: SPR (Biacore), 25C, KD of SG1 / KD of variant.

Experiment [3] concerns the target T3, cynomolgus monkey FcγRIIa3 extracellular domain, His-tagged (cynomolgus monkey).
T3 construct: also called cyno FcgRIIa3
T3 chain: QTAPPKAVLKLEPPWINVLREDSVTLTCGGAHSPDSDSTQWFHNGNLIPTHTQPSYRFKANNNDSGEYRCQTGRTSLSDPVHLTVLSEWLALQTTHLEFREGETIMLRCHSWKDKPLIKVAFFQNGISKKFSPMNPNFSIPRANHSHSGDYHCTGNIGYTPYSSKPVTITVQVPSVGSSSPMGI
The experiment can be described thus: SPR (Biacore), 25C, KD of SG1 / KD of variant.

In experiment [4] the target is T4, cynomolgus monkey FcγRIIb extracellular domain, His-tagged (cynomolgus monkey).
T4 construct: also called cyno FcgRIIb
T4 chain: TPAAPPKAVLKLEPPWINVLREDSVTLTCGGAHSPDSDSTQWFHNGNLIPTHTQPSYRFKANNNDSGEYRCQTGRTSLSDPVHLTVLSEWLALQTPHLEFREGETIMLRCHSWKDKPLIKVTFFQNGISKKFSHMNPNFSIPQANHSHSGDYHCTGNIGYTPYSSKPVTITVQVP
The experiment can be described thus: SPR (Biacore), 25C, KD of SG1 / KD of variant.

Experiment [5] concerns the target T5, cynomolgus monkey FcγRIIIaS extracellular domain, His-tagged (cynomolgus monkey, UniProt Q8SPW2 21-206 at identity 1.00)).
T5 construct: also called cyno FcgRIIIaS
T5 chain: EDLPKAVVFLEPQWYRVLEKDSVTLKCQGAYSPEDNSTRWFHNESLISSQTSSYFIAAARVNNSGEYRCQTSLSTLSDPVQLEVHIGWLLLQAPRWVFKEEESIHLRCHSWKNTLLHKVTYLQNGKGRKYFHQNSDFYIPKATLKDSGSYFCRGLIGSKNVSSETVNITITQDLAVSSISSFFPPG
The experiment can be described thus: SPR (Biacore), 25C, KD of SG1 / KD of variant.

Experiment [6] concerns the target T6, human FcγRIIaH extracellular domain, His-tagged (human, UniProt P12318 34-217).
T6 construct: also called human FcgRIIaH; FcγRIIa type H
T6 sequence: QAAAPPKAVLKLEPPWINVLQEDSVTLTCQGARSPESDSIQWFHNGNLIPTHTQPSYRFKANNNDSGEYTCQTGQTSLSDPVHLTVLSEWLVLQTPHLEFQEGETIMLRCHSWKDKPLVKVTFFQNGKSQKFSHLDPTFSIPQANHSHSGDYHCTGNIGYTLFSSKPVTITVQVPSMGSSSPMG
The experiment is described as follows: SPR (Biacore), 25C, KD of SG1 / KD of variant.

Experiment [7] has as its target T7, human FcγRIIaR extracellular domain, His-tagged (human, UniProt P12318 34-217).
T7 construct: also called human FcgRIIaR; FcγRIIa type R
T7 chain: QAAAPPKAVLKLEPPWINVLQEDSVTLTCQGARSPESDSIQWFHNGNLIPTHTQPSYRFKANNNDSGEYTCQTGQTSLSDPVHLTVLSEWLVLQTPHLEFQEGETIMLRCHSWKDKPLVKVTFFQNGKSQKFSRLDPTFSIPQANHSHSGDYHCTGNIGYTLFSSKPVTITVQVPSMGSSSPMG
The experiment is described as follows: SPR (Biacore), 25C, KD of SG1 / KD of variant.

Experiment [8] deals with T8, human FcγRIIb extracellular domain, His-tagged (human, UniProt P31994 43-217).
T8 construct: also called human FcgRIIb
T8 sequence: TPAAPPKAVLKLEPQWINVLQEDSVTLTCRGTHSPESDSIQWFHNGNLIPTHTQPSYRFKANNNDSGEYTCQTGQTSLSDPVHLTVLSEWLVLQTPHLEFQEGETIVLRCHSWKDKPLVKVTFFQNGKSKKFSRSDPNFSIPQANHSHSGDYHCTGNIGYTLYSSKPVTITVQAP
The experiment is described as follows: SPR (Biacore), 25C, KD of SG1 / KD of variant.

Experiment [9] has as its target T9, human FcγRIIIaV extracellular domain, His-tagged (human, UniProt P08637 17-208).
T9 construct: also called human FcgRIIIaV
The experiment is described as follows: SPR (Biacore), 25C, KD of SG1 / KD of variant.
T9 sequence (P08637 17-208 F176V): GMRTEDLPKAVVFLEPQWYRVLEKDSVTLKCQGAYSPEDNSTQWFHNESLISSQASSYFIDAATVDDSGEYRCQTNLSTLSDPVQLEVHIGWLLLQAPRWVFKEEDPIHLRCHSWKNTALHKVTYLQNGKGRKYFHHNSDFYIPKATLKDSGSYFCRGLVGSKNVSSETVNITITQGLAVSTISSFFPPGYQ

The target in experiment [10] is T1, cynomolgus monkey FcγRIIa1 …. The experiment is described as follows: SPR (Biacore), 25C, FcgR bound per antibody captured. The method, then: (§1) In the next step, cross-reactivity of these substitutions to cynoFcγRs was evaluated.
(§2) The value of the amount of FcγR binding was obtained by dividing the amount of FcγR bound by the amount of each antibody captured.

For experiment [11], the target named is T2, cynomolgus monkey FcγRIIa2 …. Described as above. The method, then: as §1, §2
Experiment [12] addresses T3, cynomolgus monkey FcγRIIa3 …. The description is as above. The method, then: as §1, §2
Experiment [13] addresses T4, cynomolgus monkey FcγRIIb extracellular …. The description is as above. How it is done:
as §1, §2

The target of experiment [14] is T5, cynomolgus monkey FcγRIIIaS …. Described as above. The method, then: as §1, §2
The target of experiment [15] is T2, cynomolgus monkey FcγRIIa2 …. The experiment is described as follows: SPR (Biacore), 25C, antibody captured, FcgR as analyte. How it is done: (§3) The kinetic analysis of interactions between these antibodies and FcγR was carried out using BIACORE® T200 or BIACORE® 4000 (GE Healthcare). HBS-EP+ (GE Healthcare) was used as the running buffer, and the measurement temperature was set to 25° C. […] After the measurement, the antibody captured on the chip was washed off by allowing reaction with 10 mM glycine-HCl, pH1.5 and 25 mM NaOH so that the chip was regenerated and used repeatedly. The sensorgrams obtained as measurement results were analyzed by the 1:1 Langmuir binding model using the BIACORE® Evaluation Software to calculate the binding rate constant ka (L/mol/s) and dissociation rate constant kd (1/s), and the dissociation constant KD (mol/L) was calculated from these values. […] Regarding such interactions, KD values were calculated using the following 1:1 binding model described in BIACORE® T100 Software Handbook BR1006-48 Edition AE.

In experiment [16] the target is T7, human FcγRIIaR extracellular domain, …. The description is as above. The method, then: as §3
Experiment [17] deals with T9, human FcγRIIIaV extracellular domain, …. The experiment is described as above. How it is done: as §3
The target of experiment [18] is T10, human FcγRIIIaV extracellular domain, His-tagged (human, UniProt P08637 17-208).
T10 construct: also called human FcγRIIIa (V158 allotype); FcgRIIIaV; not shown: His-tag added to the C-terminus
The experiment can be described thus: SPR (BIACORE), antibody captured on chip, FcγR as analyte, 25 C; KD of SG1 divided by KD of the variant. The method, then:
as §3
T10 sequence (P08637 17-208 F176V): as above

In experiment [19] the target is T11, cynomolgus monkey FcγRIIa1 extracellular domain with C-terminal His-tag (cynomolgus monkey).
T11 construct: also called cyno FcgRIIa1; cynoFcγRIIa1
T11 chain: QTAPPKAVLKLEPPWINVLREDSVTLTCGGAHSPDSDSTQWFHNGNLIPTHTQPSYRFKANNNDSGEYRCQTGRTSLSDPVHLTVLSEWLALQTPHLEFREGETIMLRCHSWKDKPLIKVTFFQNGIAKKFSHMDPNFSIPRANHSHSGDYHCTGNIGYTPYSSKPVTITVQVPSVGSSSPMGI
The experiment can be described thus: SPR (Biacore), KD of SG1 divided by KD of variant.

B1: MS1032LO06-SG1 (antibody, human IgG1, kappa)
heavy: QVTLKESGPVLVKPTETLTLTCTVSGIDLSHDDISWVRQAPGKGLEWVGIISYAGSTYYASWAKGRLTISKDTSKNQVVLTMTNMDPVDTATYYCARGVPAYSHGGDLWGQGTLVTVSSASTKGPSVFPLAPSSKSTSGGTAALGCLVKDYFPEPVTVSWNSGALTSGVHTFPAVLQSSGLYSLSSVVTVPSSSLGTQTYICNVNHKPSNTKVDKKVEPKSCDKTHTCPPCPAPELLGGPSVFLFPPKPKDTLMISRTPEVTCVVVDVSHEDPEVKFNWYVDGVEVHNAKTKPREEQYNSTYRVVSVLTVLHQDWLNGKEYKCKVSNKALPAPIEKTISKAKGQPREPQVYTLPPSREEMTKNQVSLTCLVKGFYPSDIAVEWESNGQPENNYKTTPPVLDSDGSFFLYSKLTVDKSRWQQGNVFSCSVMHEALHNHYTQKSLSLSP
light: DIVMTQSPATLSLSPGERATLSCTSSQSVYHANWLSWFQQKPGQPPKLLIYWASTLAYGVPSRFSGSGSGTDFTLTISSLQPEDAATYYCAGGYGGGRYAFGQGTKVEIKRTVAAPSVFIFPPSDEQLKSGTASVVCLLNNFYPREAKVQWKVDNALQSGNSQESVTEQDSKDSTYSLSSTLTLSKADYEKHKVYACEVTHQGLSSPVTKSFNRGEC
notes: Heavy constant region SG1, light constant region SK1; also called M103205H795-SG1
For orientation: Kd means the constant that tells how readily two partners part at equilibrium. For B1, the “KD fold (SG1 = 1)” value in experiment [1], in [2], in experiment [3], in experiment [4], in [5] and in experiment [6] was 1 each time. For the same molecule, the “KD fold (SG1 = 1)” value in experiment [7], in experiment [8] and in experiment [9] was 1 each time. The “Binding to cynoFcgRs (SG1 = 100)” value in experiment [10], in experiment [11], in experiment [12], in [13] and in [14] was 100 each time. In addition, the Kd worked out at 52 µM in [15], 14 µM in [16] and 1.2 µM in [17].

B2: M103205H795-MY318/M103202L889-SK1 (antibody, human IgG1, kappa, name in EU numbering)
heavy: QVTLKESGPVLVKPTETLTLTCTVSGIDLSHDDISWVRQAPGKGLEWVGIISYAGSTYYASWAKGRLTISKDTSKNQVVLTMTNMDPVDTATYYCARGVPAYSHGGDLWGQGTLVTVSSASTKGPSVFPLAPSSKSTSGGTAALGCLVKDYFPEPVTVSWNSGALTSGVHTFPAVLQSSGLYSLSSVVTVPSSSLGTQTYICNVNHKPSNTKVDKKVEPKSCDKTHTCPPCPAPELLLGPSVFLFPPKPKDTLMISRTPEVTCVVVDVSEEDPEVKFNWYVDGVEVHNAKTKPREEQYNSTYRVVSVLTVLHQDWLNGKEYKCKVSNTALPKPIEKTISKAKGQPREPQVYTLPPSREEMTKNQVSLTCLVKGFYPSDIAVEWESNGQPENNYKTTPMVLDSDGSFFLYSKLTVDKSRWQQGNVFSCSVMHEALHNHYTQKSLSLSP
light: DIVMTQSPATLSLSPGERATLSCTSSQSVYHANWLSWFQQKPGQPPKLLIYWASTLAYGVPSRFSGSGSGTDFTLTISSLQPEDAATYYCAGGYGGGRYAFGQGTKVEIKRTVAAPSVFIFPPSDEQLKSGTASVVCLLNNFYPREAKVQWKVDNALQSGNSQESVTEQDSKDSTYSLSSTLTLSKADYEKHKVYACEVTHQGLSSPVTKSFNRGEC
notes: expressed with M103202L889-SK1 as light chain
Consider B2, for which the “KD fold for humanFcgRs (SG1 = 1)” value in [18] is 0.09 fold.

B3: M103205H795-MY388 (second row so labelled: G236T/S239I/H268D/A330K) / M103202L889-SK1 (antibody, human IgG1, kappa, name in EU numbering)
heavy: QVTLKESGPVLVKPTETLTLTCTVSGIDLSHDDISWVRQAPGKGLEWVGIISYAGSTYYASWAKGRLTISKDTSKNQVVLTMTNMDPVDTATYYCARGVPAYSHGGDLWGQGTLVTVSSASTKGPSVFPLAPSSKSTSGGTAALGCLVKDYFPEPVTVSWNSGALTSGVHTFPAVLQSSGLYSLSSVVTVPSSSLGTQTYICNVNHKPSNTKVDKKVEPKSCDKTHTCPPCPAPELLTGPIVFLFPPKPKDTLMISRTPEVTCVVVDVSDEDPEVKFNWYVDGVEVHNAKTKPREEQYNSTYRVVSVLTVLHQDWLNGKEYKCKVSNKALPKPIEKTISKAKGQPREPQVYTLPPSREEMTKNQVSLTCLVKGFYPSDIAVEWESNGQPENNYKTTPPVLDSDGSFFLYSKLTVDKSRWQQGNVFSCSVMHEALHNHYTQKSLSLSP
light: DIVMTQSPATLSLSPGERATLSCTSSQSVYHANWLSWFQQKPGQPPKLLIYWASTLAYGVPSRFSGSGSGTDFTLTISSLQPEDAATYYCAGGYGGGRYAFGQGTKVEIKRTVAAPSVFIFPPSDEQLKSGTASVVCLLNNFYPREAKVQWKVDNALQSGNSQESVTEQDSKDSTYSLSSTLTLSKADYEKHKVYACEVTHQGLSSPVTKSFNRGEC
notes: The label MY388 is printed for two different variants; also called MY388 (second of two rows with this label)
Regarding B3, the “KD fold (SG1 = 1)” value in experiment [19] was found to be 1.9 fold.
